The results in this text go back to US20140314744A1 (NEOTOPE BIOSCIENCES, published 2014).

Experiment [1] concerns the target T1, Recombinant human laminin-α4 (R&D systems) (human, UniProt Q16363-2 826-1816).
T1 construct: also called laminin 4A chain; laminin A4 (α4) chain
T1 sequence (looked up): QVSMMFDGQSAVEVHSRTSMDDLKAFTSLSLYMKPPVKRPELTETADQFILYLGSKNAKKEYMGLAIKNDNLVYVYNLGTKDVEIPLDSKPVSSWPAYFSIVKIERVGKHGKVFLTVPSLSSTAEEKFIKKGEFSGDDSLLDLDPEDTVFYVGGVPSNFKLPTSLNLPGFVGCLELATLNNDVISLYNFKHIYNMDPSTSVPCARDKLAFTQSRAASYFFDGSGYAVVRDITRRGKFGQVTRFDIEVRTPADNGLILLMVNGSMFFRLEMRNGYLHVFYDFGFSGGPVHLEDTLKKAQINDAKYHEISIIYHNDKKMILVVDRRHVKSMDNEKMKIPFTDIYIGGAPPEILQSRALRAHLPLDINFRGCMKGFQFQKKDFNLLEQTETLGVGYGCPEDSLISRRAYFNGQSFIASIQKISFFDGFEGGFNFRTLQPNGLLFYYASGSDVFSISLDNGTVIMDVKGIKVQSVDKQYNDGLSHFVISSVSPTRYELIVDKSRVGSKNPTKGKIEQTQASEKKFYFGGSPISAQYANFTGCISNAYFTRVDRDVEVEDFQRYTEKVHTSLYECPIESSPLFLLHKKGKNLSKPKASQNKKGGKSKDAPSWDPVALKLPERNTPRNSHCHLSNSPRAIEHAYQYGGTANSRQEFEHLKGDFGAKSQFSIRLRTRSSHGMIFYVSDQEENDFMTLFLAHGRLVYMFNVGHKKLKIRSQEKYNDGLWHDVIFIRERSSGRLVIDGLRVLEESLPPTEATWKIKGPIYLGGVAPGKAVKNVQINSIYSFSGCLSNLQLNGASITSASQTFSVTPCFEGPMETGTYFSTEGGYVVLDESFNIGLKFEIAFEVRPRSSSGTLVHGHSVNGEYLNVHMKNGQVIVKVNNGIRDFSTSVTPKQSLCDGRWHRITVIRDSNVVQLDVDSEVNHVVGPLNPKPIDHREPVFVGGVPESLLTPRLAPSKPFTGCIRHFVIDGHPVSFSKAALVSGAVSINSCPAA
The experiment can be described thus: SPR (Biacore T200). In general terms: In SPR one partner is held on a chip, and binding of the other changes the refractive index at the surface.

The target of experiment [2] is T2, Recombinant human laminin 511 (Biolamina) (human, UniProt O15230 36-3695; P07942 22-1786; P11047 34-1609).
T2 construct: Trimer α5β1γ1, bought; negative control
The experiment can be described thus: SPR (Biacore T200).

In experiment [3] the target is T3, Murine MCAM domain 1 (Ig1) with human IgG Fc tag (mouse, UniProt Q8R2Y2 24-131, limits assumed).
T3 construct: domain: domain 1 (Ig1); also called MCAM Fc domain 1; not shown: human IgG Fc tag
T3 sequence (looked up): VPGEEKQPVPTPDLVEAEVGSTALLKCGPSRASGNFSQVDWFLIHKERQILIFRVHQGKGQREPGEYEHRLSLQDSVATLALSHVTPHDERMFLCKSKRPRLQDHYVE
The experiment can be described thus: ForteBio Octet Red, domains on anti-human IgG Fc biosensors. The text has this: (§1) The following protocol was used: ForteBio Domain Mapping Protocol. ForteBio anti-human IgG Fc biosensors were used to immobilize various mouse MCAMhFc domains including full length mouse MCAMhFc protein on to biosensor surface. These sensors were dipped into either clone 15 or 17 MCAM specific antibody for detection of binding to these domains or full length protein. After loading these samples into a black 96 well plate, the Octet Red was programmed as follows: 60 seconds for baseline #1; 180 seconds for loading various domains; 60 seconds for baseline #2; 180 seconds for association of antibody to domain; and 240 seconds for dissociation of antibody from domain.
Background: BLI is a label-free optical method that tracks binding on a fibre tip over time.

The target of experiment [4] is T4, Murine MCAM domain 1 and 2 (Ig1-2A) with human IgG Fc tag (mouse, UniProt Q8R2Y2 24-244, limits assumed).
T4 construct: domain: domain 1 and 2 (Ig1-2A); also called MCAM Fc domains 1 and 2; not shown: human IgG Fc tag
T4 sequence (looked up): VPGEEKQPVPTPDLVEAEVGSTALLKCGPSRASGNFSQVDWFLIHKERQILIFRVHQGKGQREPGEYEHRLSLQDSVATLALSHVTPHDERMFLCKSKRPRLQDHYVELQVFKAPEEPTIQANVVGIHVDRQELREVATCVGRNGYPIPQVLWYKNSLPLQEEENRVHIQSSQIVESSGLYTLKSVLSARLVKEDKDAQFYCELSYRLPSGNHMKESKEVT
The description is as above.
From the text: as §1

In experiment [5] the target is T5, mouse MCAM (full length, on transfected CHO cells) (mouse, UniProt Q8R2Y2 24-648).
T5 construct: whole, on cells; also called murine MCAM; mouse MCAM transfected CHO cells
T5 sequence (looked up): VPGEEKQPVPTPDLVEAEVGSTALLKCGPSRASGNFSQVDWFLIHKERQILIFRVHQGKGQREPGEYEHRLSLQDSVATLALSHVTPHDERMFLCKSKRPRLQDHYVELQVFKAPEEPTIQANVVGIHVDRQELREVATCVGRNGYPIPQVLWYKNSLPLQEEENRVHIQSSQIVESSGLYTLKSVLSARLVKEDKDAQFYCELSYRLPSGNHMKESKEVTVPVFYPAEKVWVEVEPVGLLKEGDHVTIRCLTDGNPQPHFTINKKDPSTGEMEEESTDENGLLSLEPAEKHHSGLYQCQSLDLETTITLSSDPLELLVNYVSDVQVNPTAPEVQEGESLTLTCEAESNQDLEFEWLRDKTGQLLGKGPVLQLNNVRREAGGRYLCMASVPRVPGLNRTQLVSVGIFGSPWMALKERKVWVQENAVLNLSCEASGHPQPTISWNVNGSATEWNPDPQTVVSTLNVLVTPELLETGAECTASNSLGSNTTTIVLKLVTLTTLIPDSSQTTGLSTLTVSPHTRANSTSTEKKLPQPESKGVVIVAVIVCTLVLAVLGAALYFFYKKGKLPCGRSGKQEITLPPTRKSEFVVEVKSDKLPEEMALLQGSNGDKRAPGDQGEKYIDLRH
The experiment can be described thus: flow cytometry on MCAM transfected cells mixed with CFSE-labelled untransfected cells. Here is the method: MCAM-Fc was generated by fusing the extracellular domain of murine MCAM to human IgG and produced in CHO cells using standard techniques. Lou/M rats were immunized with 100 μg of MCAM-Fc protein in CFA (1:1 volume). Rats were boosted two times at two week intervals with MCAM-Fc protein in incomplete Freund's adjuvant (IFA) (1:1 volume). Hybridomas were generated from immunized rats using standard protocols and clones were selected by Clonepix. CHO cells were transfected with the full length murine MCAM gene and selected for stable expression using neomycin and standard techniques. Parental CHO cells (MCAM negative) were fluorescently labeled with carboxyfluorescein succinimidyl ester (CFSE) using standard techniques and mixed at a 1:1 ratio with unlabeled MCAM transfected CHO cells. Hybridoma supernatants were incubated with this mixture of cells for 30 minutes and binding of potential MCAM specific antibodies was detected with a fluorescently labeled anti-rat secondary antibody (Jackson Immuno) by flow cytometry.
(§2) Monoclonal antibodies against mouse MCAM were generated as described in Materials and Methods above. The specific binding between the monoclonal antibody and MCAM was confirmed by assessing the monoclonal antibody's ability to bind to cells transfected with either mouse or human MCAM. For this, untransfected cells were labeled with carboxyfluorescein succinimidyl ester (CFSE) and mixed with unlabeled MCAM transfected cells. Untransfected cells (in blue) could therefore be differentiated.

Experiment [6] deals with T6, human MCAM (on transfected cells) (human, UniProt P43121 24-646).
T6 construct: Cells transfected with human MCAM; also called CD146; MUC18
T6 chain: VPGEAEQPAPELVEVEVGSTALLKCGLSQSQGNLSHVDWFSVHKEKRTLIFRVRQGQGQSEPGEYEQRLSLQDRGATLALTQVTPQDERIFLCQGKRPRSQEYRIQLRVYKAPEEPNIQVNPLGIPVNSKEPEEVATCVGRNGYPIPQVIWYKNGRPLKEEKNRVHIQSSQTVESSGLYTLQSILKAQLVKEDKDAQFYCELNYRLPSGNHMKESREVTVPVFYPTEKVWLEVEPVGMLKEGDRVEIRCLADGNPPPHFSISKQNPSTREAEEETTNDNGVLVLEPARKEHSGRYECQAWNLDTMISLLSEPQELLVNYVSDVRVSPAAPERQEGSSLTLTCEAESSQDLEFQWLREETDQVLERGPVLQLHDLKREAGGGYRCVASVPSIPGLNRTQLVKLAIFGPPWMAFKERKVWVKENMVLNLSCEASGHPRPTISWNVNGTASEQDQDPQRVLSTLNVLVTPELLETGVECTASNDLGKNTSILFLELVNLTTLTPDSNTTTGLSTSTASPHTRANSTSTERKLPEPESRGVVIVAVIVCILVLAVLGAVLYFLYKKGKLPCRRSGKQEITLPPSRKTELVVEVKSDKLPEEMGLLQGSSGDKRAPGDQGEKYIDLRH
The experiment can be described thus: flow cytometry on human MCAM transfected cells mixed with CFSE-labelled untransfected cells.
From the text: as §2
(In general: A flow cytometer gives signals particle by particle.)

The next experiment has as its target T7, Ig2 domain (mouse, UniProt Q8R2Y2).
T7 construct: immunoglobulin domain 2 alone; also called Murine MCAM domain 2 (Ig2)
T7 sequence (Fc fusion chain, looked up): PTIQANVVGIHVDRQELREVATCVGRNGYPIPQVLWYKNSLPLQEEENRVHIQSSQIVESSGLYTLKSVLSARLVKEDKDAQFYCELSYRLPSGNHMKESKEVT
Kind of experiment: ForteBio Octet Red, anti-human IgG Fc biosensor loaded with the Ig2 domain hFc protein, dipped into clone 15 or SP2 media.
From the text: as §1
(§3) For FIG. 10A-B, clones 15 and 17 were tested against the following protein samples (all have human IgG Fc tag): […]

The target in experiment [7] is T8, murine MCAM-Fc (extracellular domain of murine MCAM fused to human IgG) (mouse, UniProt Q8R2Y2 24-563).
T8 construct: extracellular domain; Produced in CHO cells; also called mouse MCAM-Fc protein; full length mouse MCAMhFc protein; not shown: human IgG (Fc) part
T8 sequence (looked up): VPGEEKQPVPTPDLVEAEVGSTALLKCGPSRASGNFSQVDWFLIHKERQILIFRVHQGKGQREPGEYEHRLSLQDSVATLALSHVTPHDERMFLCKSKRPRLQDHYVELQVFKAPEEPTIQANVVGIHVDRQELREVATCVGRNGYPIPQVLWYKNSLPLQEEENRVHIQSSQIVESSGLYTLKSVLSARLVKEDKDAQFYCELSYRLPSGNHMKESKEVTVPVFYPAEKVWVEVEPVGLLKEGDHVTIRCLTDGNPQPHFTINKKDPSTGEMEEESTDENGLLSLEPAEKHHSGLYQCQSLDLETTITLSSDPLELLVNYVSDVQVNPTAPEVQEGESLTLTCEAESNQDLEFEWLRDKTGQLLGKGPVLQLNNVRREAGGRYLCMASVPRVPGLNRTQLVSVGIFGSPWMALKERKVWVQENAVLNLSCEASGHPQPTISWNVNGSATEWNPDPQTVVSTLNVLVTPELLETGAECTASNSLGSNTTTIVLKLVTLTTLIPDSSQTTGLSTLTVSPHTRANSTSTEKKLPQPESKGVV
Kind of experiment: ForteBio Octet Red, anti-human IgG Fc biosensor loaded with mouse MCAMhFc (5 ug/ml), dipped into clone 15 (5 ug/ml) or SP2 media.
From the text: as §1, §3

B1: MCAM Fc domain 1 alone (Example 9) (Fc fusion)
chain: PRVAGVPGEAEQPAPELVEVEVGSTALLKCGLSQSQGNLSHVDWFSVHKEKRTLIFRVRQGQGQSEPGEYEQRLSLQDRGATLALTQVTPQDERIFLCQGKRPRSQEYRIQ
notes: not shown: Fc tag; not described
In the case of B1, the binding result in experiment [1] and in experiment [2] was “no binding (tested: 5-175 nM)” throughout.

B2: clone 15 monoclonal antibody (rat anti-MCAM) (antibody, V domains shown)
VH: EVRLVESGGGLVQPGKSMKLSCVASGFKFSNYYMSWVRQAPAKGLEWVASISDGGGDTFCRDLVKGRFTISRDNAKSTLYLQMDSLRPEDTATYYCARRGAAMGGVMDAWGQGTSVTVSS
VL: DIVMTQSPSSLAVSAGETVSIHCKSSQSLLYSGTQKNYLAWFQQKPGQSPKLLIFWASTRQSGVPDRFIGRGSGTDFTLTISGVQAEDLAIYYCQQYYDTLTDTFGAGTKLELKR
notes: Rat monoclonal from a hybridoma; also called anti-MCAM antibody (clone 15)
For B2, the binding result is on record as “no binding (tested: 5 ug/ml)” in experiment [3]; “binds” in experiment [4]; “binds” in experiment [5]; “no binding” in experiment [6]; “no binding (tested: 5 ug/ml)” with Ig2 domain; “binds” in experiment [7].
